Laboratory results published in US9222119B2, “Detection of degradative enzymes and biomolecules in bodily fluids” (The Regents of the University of California, priority 2008, dated 2015).
diamino‑ethyl = ethylenediamine linker to Bodipy FL

Columns and labels:
Assay type in all cases: biochemical
[1] = tested on: human pancreatic α-chymotrypsin; assay: Detection of chymotrypsin activity in whole rat blood or 1×PBS using NCDPS substrate; conditions: 1×PBS or whole rat blood, 1 h incubation, α-chymotrypsin stocks 2, 0.4, 0.08, 0 mg/ml
Description: In this experiment 7 μl of 1× phosphate buffered saline (PBS) at pH 7.8 or 7 μl of whole rat blood were mixed with the following: 7 μl of 1 mg/ml Acetyl-N-[…]Bodipy FL (SEQ ID NO:26) in 1×PBS pH 7.8; 0.4 μl of 2 M CaCl2; and 0.5 μl of the following concentrations 2 mg/ml, 0.4 mg/ml, 0.08 mg/ml and 0 mg/ml of human pancreatic α-chymotrypsin. The mixtures were incubated for 1 hour and then 6 μl of sample was loaded into the wells of a 4% high resolution agarose gel. The five wells on the left-hand side were loaded with 1×PBS samples and the five wells on the right right-hand side were loaded with the whole rat blood samples. Electrophoresis was performed for 30 minutes at 80 V and then the gel was imaged using a BioDoc-It® System with a Model M-26 transilluminator (UVP, Upland, Calif.). The upper FIG. 26A show the gel before the electric field was applied and the quenching of fluorescent signal from NCDPS substrate by the blood samples can clearly be seen in the five wells on the […] side. This sensitivity-reducing quenching issue would occur for many of the current types of fluorescent enzyme assays utilizing classical fluorogenic substrates. As a result, these latter methods typically require considerable sample preparation, which is time-consuming and makes the measurements less accurate, in order to recover fluorescent signal.

[2] = molecular target: T1, bovine pancreatic α-chymotrypsin (Bos taurus, UniProt P00766); assay: Detection of α-chymotrypsin in 1×PBS buffer using NCDPS, agarose gel electrophoresis; conditions: 1×PBS pH 7.8, 300 μM substrate, 1 h reaction
T1 construct: from tissue; host or cells: bovine pancreas (lyophilized enzyme)
Description: (§1) In this experiment a 1 mg/ml (650 μM) stock solution of the NCDPS substrate Ac-N-[…]diamino-ethyl-Bodipy FL (SEQ ID NO:29) (MW 1537.4) was prepared by dissolving the peptide in 1× phosphate buffered saline (PBS) at pH 7.8. […] Both proteases were serially diluted in 1 mM HCl in order to obtain the desired concentrations. A solution of 486 μg/ml (316 μM) of the Ac-N-[…]diamino-ethyl-Bodipy FL peptide was prepared in 1×PBS (pH 7.8). Aliquots of 14.4 μl of the […] peptide solution (1×PBS) were mixed with 1 μl aliquots of various concentrations of the proteases or 1 ul of 1 mM HCl for the negative control, and then allowed to react for one hour. 6 μl samples containing 3 μg (300 μM) of the substrate with protease concentrations ranging from 500 nM (lanes 1-2), 100 nM (lanes 3-4), 50 nM (lanes 5-6), 30 nM (lanes 7-8), 20 nM (lanes 9-10) or 0 nM (lanes 11-12) were loaded into the wells of a 4% high resolution agarose gel run in 0.5×TBE. […] Gels were then quantified with a Storm 480 gel scanner using ImageQuant v5.2 (Molecular Dynamics, Sunnyvale, Calif.) (fluorescence mode, high sensitivity, 100 μm pixel size, 1000V photomultiplier tube) with a 450 nm excitation filter and a 520 nm long pass emission filter. […]

[3] = molecular target: T2, bovine pancreatic trypsin (Bos taurus, UniProt P00760); assay: Detection of trypsin in 1×PBS buffer using NCDPS, agarose gel electrophoresis; conditions: 1×PBS pH 7.8, 300 μM substrate, 1 h reaction
T2 construct: from tissue; host or cells: bovine pancreas (lyophilized enzyme)
T2 sequence (P00760 24-246): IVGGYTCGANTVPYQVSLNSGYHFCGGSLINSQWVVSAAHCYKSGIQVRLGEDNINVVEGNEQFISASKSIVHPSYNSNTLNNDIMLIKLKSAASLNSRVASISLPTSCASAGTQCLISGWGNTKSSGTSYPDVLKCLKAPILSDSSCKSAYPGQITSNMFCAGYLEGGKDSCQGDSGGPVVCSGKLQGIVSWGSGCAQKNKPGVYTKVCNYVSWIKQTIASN
Description: as §1

[4] = molecular target: T1, bovine pancreatic α-chymotrypsin; assay: Detection of α-chymotrypsin in human plasma using NCDPS; conditions: un-diluted human plasma, 1 h reaction
Description: (§2) In this example a 1 mg/ml (650 μM) stock solution of the peptide substrate was prepared from lyophilized Ac-N-[…]diamino-ethyl-Bodipy FL (MW 1537.4) (SEQ ID NO:29) by dissolving the peptide in 1×PBS at pH 7.8. […] Both proteases were serially diluted in 1 mM HCl in order to obtain the desired concentrations. A solution of 486 μg/ml (316 μM) of the Ac-N-[…]diamino-ethyl-Bodipy FL peptide was prepared in un-diluted human plasma. Aliquots of 14.4 μl of the peptide plasma solution were mixed with 1 μl aliquots of various concentrations of the proteases or 1 ul of 1 mM HCl for the negative control and then allowed to react for one hour. Samples of about 6 μl each containing 3 μg (300 μM) of the substrate with protease concentrations that ranged from 500 nM (lanes 1-2), 100 nM (lanes 3-4), 50 nM (lanes 5-6), 30 nM (lanes 7-8), 20 nM (lanes 9-10) or 0 nM (lanes 11-12) were loaded into the wells of a 4% high resolution agarose gel in 0.5×TBE. […] Gels were then quantified with a Storm 480 gel scanner using ImageQuant v5.2 (Molecular Dynamics, Sunnyvale, Calif.) (fluorescence mode, high sensitivity, 100 μm pixel size, 1000V photomultiplier tube) with a 450 nm excitation filter and a 520 nm long pass emission filter. […]

[5] = molecular target: T2, bovine pancreatic trypsin; assay: Detection of trypsin in human plasma using NCDPS; conditions: un-diluted human plasma, 1 h reaction
Description: as §2

Substance | cleavage products on gel after electrophoresis (FIG. 26B) [1] | detection level by inspection of gel (FIG. 20) [2] | detection level by inspection of gel (FIG. 20) [3] | detection level by inspection of gel (FIG. 22) [4] | detection level by inspection of gel (FIG. 22) [5]
Acetyl-N-Asp-Gly-Asp-Ala-Gly-Tyr-Ala-Gly-Leu-Arg-Gly-Ala-Gly-Bodipy FL (Ac-DGDAGYAGLRGAG-{Bodipy FL}) | appearance of cleavage products in the first three 1×PBS samples and in the blood samples | – | – | – | –
Ac-N-Asp-Gly-Asp-Ala-Gly-Tyr-Ala-Gly-Leu-Arg-Gly-Ala-Gly-diamino-ethyl-Bodipy FL (Ac-DGDAGYAGLRGAG-{diamino‑ethyl-Bodipy FL}) [SEQ ID NO:29, NCDPS substrate for chymotrypsin and trypsin, net charge −1] | – | about 20 nM | about 30 nM | about 20 nM | about 20 nM
